The text below walks through data of patent US20110318377.

In series [1] the test system is histones purified from calf thymus.
Series [2] relates to full-length synthetic Tat protein (72 amino acids), unmodified.

Take recombinant G9a (Upstate): the “in vitro methylation with radiolabeled SAM, autoradiography” value in series [1] is “led to the successful methylation of histones as expected”; in series [2], “Incubation with the lysine methyltransferase G9a did not result in methylation of Tat”.
